Four substances from article PMC8639819 can be followed below.

The nature of data set [1]: Western blot, stable 2TS22C cells. Particulars: glycan lost; control: WT FLAG-Sox2. On the technique in general: In western blotting, separated proteins are transferred to a membrane and probed.
The nature of data set [2]: 3D z-stack immunofluorescence, 2TS22C cells. Particulars: glycan lost; control: WT FLAG-Sox2.
The next data set is described as follows: Western blot. Particulars: glycan lost; control: E14 cells.
A short description of data set [3]: immunofluorescence confocal microscopy. Particulars: glycan lost; control: E14 cells.

Sequence of Sox2: E14-Sox2TA/WT (chain, as listed by the source): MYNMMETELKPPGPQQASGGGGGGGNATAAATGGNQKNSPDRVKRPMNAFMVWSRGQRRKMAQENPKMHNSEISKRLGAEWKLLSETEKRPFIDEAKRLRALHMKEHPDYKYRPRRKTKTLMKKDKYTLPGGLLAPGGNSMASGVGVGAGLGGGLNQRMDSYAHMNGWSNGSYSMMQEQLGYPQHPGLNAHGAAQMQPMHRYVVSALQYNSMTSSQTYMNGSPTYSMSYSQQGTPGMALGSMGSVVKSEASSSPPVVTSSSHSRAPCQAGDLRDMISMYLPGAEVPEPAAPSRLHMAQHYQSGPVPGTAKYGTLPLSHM
Sequence of Sox2: T258A (chain, as listed by the source T258A): as the sequence (chain, as listed by the source) above
Sequence of Sox2: S248A/T258A (chain, as listed by the source S248A T258A): as the sequence (chain, as listed by the source) above
Sequence of Sox2: S248A (chain, as listed by the source S248A): as the sequence (chain, as listed by the source) above

As for Sox2: T258A, the expression_or_secretion result in data set [1] is on record as “no change”. Besides, in data set [2], the localisation_or_trafficking entry was “no change”. Regarding Sox2: E14-Sox2TA/WT, the expression_or_secretion entry in “Western blot” was “no change”. In data set [3], the localisation_or_trafficking entry was “no change”.

On to Sox2: S248A/T258A, for which, in data set [1], the expression_or_secretion result is given as “no change”. As to Sox2: S248A, in data set [1], the expression_or_secretion result is “no change”.
